According to article PMC10397247:

Experiments:
Assay in all cases: two-hybrid library CCmax;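 also: natural log of median RNA to DNA barcode read ratio; higher means stronger binding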
Conditions in all cases: mean of both orientations
4H909-AA = target: T1, 4H909-AA
T1 chain: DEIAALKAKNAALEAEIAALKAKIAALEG

4H310-AA = target: T2, 4H310-AA
T2 chain: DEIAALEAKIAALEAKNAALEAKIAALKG

4H3606-AA = target: T3, 4H3606-AA
T3 chain: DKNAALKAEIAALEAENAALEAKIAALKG

4H3697-AA = target: T4, 4H3697-AA
T4 chain: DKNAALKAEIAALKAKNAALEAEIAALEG

4H3631-AA = target: T5, 4H3631-AA
T5 chain: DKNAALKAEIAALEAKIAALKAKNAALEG

4H458-AA = target: T6, 4H458-AA
T6 chain: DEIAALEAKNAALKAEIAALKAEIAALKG

4H2698-AA = target: T7, 4H2698-AA
T7 chain: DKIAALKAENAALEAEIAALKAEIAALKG

4H3865-AA = target: T8, 4H3865-AA
T8 chain: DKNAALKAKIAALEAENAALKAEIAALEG

4H570-AA = target: T9, 4H570-AA
T9 chain: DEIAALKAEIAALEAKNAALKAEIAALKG

4H2865-AA = target: T10, 4H2865-AA
T10 chain: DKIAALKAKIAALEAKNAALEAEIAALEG

4H3009-AA = target: T11, 4H3009-AA
T11 chain: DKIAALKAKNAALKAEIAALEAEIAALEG

4H3130-AA = target: T12, 4H3130-AA
T12 chain: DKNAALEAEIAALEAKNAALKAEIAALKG

4H891-AA = target: T13, 4H891-AA
T13 chain: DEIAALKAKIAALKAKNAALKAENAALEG

4H3120-AA = target: T14, 4H3120-AA
T14 chain: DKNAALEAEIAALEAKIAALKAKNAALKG

4H745-AA = target: T15, 4H745-AA
T15 chain: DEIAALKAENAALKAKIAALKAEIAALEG

4H850-AA = target: T16, 4H850-AA
T16 chain: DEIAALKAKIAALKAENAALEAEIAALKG

4H2253-AA = target: T17, 4H2253-AA
T17 chain: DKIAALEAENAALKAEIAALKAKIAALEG

4H3165-AA = target: T18, 4H3165-AA
T18 chain: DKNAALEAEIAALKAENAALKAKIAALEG

4H697-AA = target: T19, 4H697-AA
T19 chain: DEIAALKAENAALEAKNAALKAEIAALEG

4H3395-AA = target: T20, 4H3395-AA
T20 chain: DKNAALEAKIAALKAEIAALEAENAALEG

4H2274-AA = target: T21, 4H2274-AA
T21 chain: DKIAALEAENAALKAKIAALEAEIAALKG

4H930-AA = target: T22, 4H930-AA
T22 chain: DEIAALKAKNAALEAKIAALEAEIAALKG

4H982-AA = target: T23, 4H982-AA
T23 chain: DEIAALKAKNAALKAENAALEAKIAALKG

4H2389-AA = target: T24, 4H2389-AA
T24 chain: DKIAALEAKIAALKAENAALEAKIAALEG

4H485-AA = target: T25, 4H485-AA
T25 chain: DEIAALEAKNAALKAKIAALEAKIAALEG

4H710-AA = target: T26, 4H710-AA
T26 chain: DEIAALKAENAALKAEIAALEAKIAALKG

4H3590-AA = target: T27, 4H3590-AA
T27 chain: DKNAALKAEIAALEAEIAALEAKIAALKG

4H3753-AA = target: T28, 4H3753-AA
T28 chain: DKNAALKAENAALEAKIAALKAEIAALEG

4H3718-AA = target: T29, 4H3718-AA
T29 chain: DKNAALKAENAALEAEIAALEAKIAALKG

4H3410-AA = target: T30, 4H3410-AA
T30 chain: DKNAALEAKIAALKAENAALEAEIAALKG

4H94-AA = target: T31, 4H94-AA
T31 chain: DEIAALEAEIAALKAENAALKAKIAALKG

4H3381-AA = target: T32, 4H3381-AA
T32 chain: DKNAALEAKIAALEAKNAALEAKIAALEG

4H797-AA = target: T33, 4H797-AA
T33 chain: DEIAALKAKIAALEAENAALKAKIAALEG

4H536-AA = target: T34, 4H536-AA
T34 chain: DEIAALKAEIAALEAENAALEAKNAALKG

4H2473-AA = target: T35, 4H2473-AA
T35 chain: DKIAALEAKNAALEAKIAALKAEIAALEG

4H2438-AA = target: T36, 4H2438-AA
T36 chain: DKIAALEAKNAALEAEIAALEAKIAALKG

4H2330-AA = target: T37, 4H2330-AA
T37 chain: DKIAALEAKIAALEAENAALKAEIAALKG

interaction score (4H909-AA): -1.21
interaction score (4H310-AA): -0.748
interaction score (4H3606-AA): 2.23
interaction score (4H3697-AA): 0.439
interaction score (4H3631-AA): -1.57
interaction score (4H458-AA): -1.3
interaction score (4H2698-AA): -0.391
interaction score (4H3865-AA): 2.2
interaction score (4H570-AA): 0.408
interaction score (4H2865-AA): 1.76
interaction score (4H3009-AA): 0.0502
interaction score (4H3130-AA): 0.822
interaction score (4H891-AA): -1.69
interaction score (4H3120-AA): -1.24
interaction score (4H745-AA): -1.11
interaction score (4H850-AA): 1.87
interaction score (4H2253-AA): -0.556
interaction score (4H3165-AA): 0.0119
interaction score (4H697-AA): -1.05
interaction score (4H3395-AA): -0.984
interaction score (4H2274-AA): -1.15
interaction score (4H930-AA): -1.4
interaction score (4H982-AA): -1.4
interaction score (4H2389-AA): 1.17
interaction score (4H485-AA): -1.08
interaction score (4H710-AA): -0.684
interaction score (4H3590-AA): -0.24
interaction score (4H3753-AA): -1.37
interaction score (4H3718-AA): -1.04
interaction score (4H3410-AA): 1.9
interaction score (4H94-AA): -0.926
interaction score (4H3381-AA): -1.23
interaction score (4H797-AA): 1.92
interaction score (4H536-AA): -1.27
interaction score (4H2473-AA): -1.02
interaction score (4H2438-AA): -0.264
interaction score (4H2330-AA): 1.35
Binder: DENAALEAKIAALEAENAALKAKIAALKG [4H1310-AA]
